± gives the standard deviation.

The nature of the data set: protein stability index of a GFP-peptide fusion (GPS, HEK-293T) (PSI 1-6); higher = more stable. Particulars: c terminus: a fixed tail appended.
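Note: 24-mer peptide tiles fused after GFP, lentivirally expressed, FACS-sorted into six equal bins by GFP/DsRed ratio, decoded by Illumina sequencing, PSI is the read-weighted mean bin number.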

On to NRDEHSSRGYRNHRSSRETRDYAP [RBMY1A1], for which the protein stability index runs as follows: (treatment: DMSO) 4.74 ± 0.072; (treatment: MLN4924 1 uM, 8 h) 4.63 ± 0.095.

Consider NRELWKEFSSVGTEMIITKAGRRM [TBX6], for which the protein stability index (treatment: DMSO) is 2.88 ± 0.27 and the protein stability index (treatment: MLN4924 1 uM, 8 h) amounted to 3.21 ± 0.4.

Take NSEADQLGKIFDLIGLPPEDDWPR [CDK4]: the protein stability index came out at 3.7 ± 0.35 (treatment: DMSO) and 3.92 ± 0.23 (treatment: MLN4924 1 uM, 8 h).

In the case of NSMAPHPARDYVVLRTWRTNLPKG [DLC1], the protein stability index (treatment: DMSO) amounted to 2.48 ± 0.59 and the protein stability index (treatment: MLN4924 1 uM, 8 h) was determined as 2.64 ± 0.21.

For the sequence NSSPRVMQRKQSLGKPDQKDLNEN [DLC1], the protein stability index (treatment: DMSO) came to 5.09 ± 0.18 and the protein stability index (treatment: MLN4924 1 uM, 8 h) turned out to be 4.88 ± 0.28.

Turning to NVLHGYPKDIYSSFGFPRTVKHID [MMP1], the protein stability index stood at 2.63 ± 0.098 (treatment: DMSO) and 2.74 ± 0.24 (treatment: MLN4924 1 uM, 8 h).

As to NVVTCAAGILSNLTCNNYKNKMMV [CTNNB1], the protein stability index is, setting by setting: (treatment: DMSO) 2.69 ± 0.41; (treatment: MLN4924 1 uM, 8 h) 2.46 ± 0.24.

Take NVYPEMRVYNNTLTYGEVRNSKAS [GALNT9]: the protein stability index by setting is: (treatment: DMSO) 3.94 ± 0.22; (treatment: MLN4924 1 uM, 8 h) 4.14 ± 0.3.

PAATWNLEEKRLTWRLPDVSEAGG [FCHO1]: the protein stability index runs as follows: (treatment: DMSO) 4.49 ± 0.24; (treatment: MLN4924 1 uM, 8 h) 4.58 ± 0.25.

For the sequence PAFRFLTKMWHPNIYETGDVCISI [CDC34], the protein stability index stood at 3.2 ± 0.42 (treatment: DMSO) and 3.04 ± 0.59 (treatment: MLN4924 1 uM, 8 h).

Sequence PAHRFVLAAGSAVFDAMFNGGMAT [BTBD1] registered a protein stability index (treatment: DMSO) of 2.49 ± 0.85 and a protein stability index (treatment: MLN4924 1 uM, 8 h) of 2.24 ± 0.55.

Regarding PANCPACREPSPKMDFKTNILLKN [TRIM43], the protein stability index reads like this: (treatment: DMSO) 3.38 ± 0.25; (treatment: MLN4924 1 uM, 8 h) 3.52 ± 0.21.

As to PAPALAPDQLPQNNTLVALPIVAI [FBXO28], the protein stability index (treatment: DMSO) was found to be 2.91 ± 0.23 and the protein stability index (treatment: MLN4924 1 uM, 8 h) came to 2.68 ± 0.33.

As to PAQLSCLPYLEHVGHNHTYNMAPS [NFE2L1], the protein stability index stood at 2.91 ± 0.25 (treatment: DMSO) and 2.96 ± 0.28 (treatment: MLN4924 1 uM, 8 h).

Take PAQPGADSSFPPALAEGYRYPELD [TBX6]: the protein stability index was found to be 5.14 ± 0.18 (treatment: DMSO) and 5.01 ± 0.36 (treatment: MLN4924 1 uM, 8 h).

Take PAVATLCDLFDREIVVTISWAKSI [ESRRA]: the protein stability index runs as follows: (treatment: DMSO) 2.65 ± 0.56; (treatment: MLN4924 1 uM, 8 h) 3.36 ± 0.85.

As for PCIPPGFRNLVADRVLNYTSWSQH [SPAG8], the protein stability index by setting is: (treatment: DMSO) 2.14 ± 0.15; (treatment: MLN4924 1 uM, 8 h) 2.37 ± 0.27.

Consider PCPEDASTPRPPEASSSPPEGSQD [TLE6], for which the protein stability index reads like this: (treatment: DMSO) 5.52 ± 0.16; (treatment: MLN4924 1 uM, 8 h) 5.53 ± 0.17.

Take PDALSDVGEVPYWVLEPVLEGWRP [ELOA2]: the protein stability index runs as follows: (treatment: DMSO) 3.07 ± 0.26; (treatment: MLN4924 1 uM, 8 h) 3.13 ± 0.54.

Regarding PDFCHKFLPGYVGGIQEGAVTPAG [DHCR7], the protein stability index stood at 3.57 ± 0.32 (treatment: DMSO) and 3.6 ± 0.11 (treatment: MLN4924 1 uM, 8 h).

With PEARYLFLLDVIPVDGARYRWQGR [TBX6], the protein stability index was determined as 2.08 ± 0.27 (treatment: DMSO) and 2.09 ± 0.31 (treatment: MLN4924 1 uM, 8 h).

PEEFSLLKLQTKDGHRPEWTFYPR [SPATS1]: the protein stability index reads like this: (treatment: DMSO) 2.76 ± 0.32; (treatment: MLN4924 1 uM, 8 h) 2.87 ± 0.49.

PEGSQDRNTSWGVVQEPPGRASRF [TLE6] gave a protein stability index (treatment: DMSO) of 4.83 ± 0.23 and a protein stability index (treatment: MLN4924 1 uM, 8 h) of 4.57 ± 0.14.

Regarding PEPEDEPGGPGAMTESLEASEFLE [RSPH3], the protein stability index by setting is: (treatment: DMSO) 5.7 ± 0.12; (treatment: MLN4924 1 uM, 8 h) 5.48 ± 0.2.

Regarding PESPGGTTTLEGSPSVPCIFCEEH [ZNF277], the protein stability index came to 4.82 ± 0.3 (treatment: DMSO) and 4.82 ± 0.16 (treatment: MLN4924 1 uM, 8 h).

Take PGAFGTILTFLRAGKLRLLREMCA [KCNG1]: the protein stability index (treatment: DMSO) was found to be 2.84 ± 0.33 and the protein stability index (treatment: MLN4924 1 uM, 8 h) amounted to 2.8 ± 0.062.

Regarding PGGGGSPGACPALGTKSCSSSCAV [RTN3], the protein stability index was 3.73 ± 0.42 (treatment: DMSO) and 4.07 ± 0.22 (treatment: MLN4924 1 uM, 8 h).

With PGQEKGSALEGRADTTTGSAAGPP [EHMT1], the protein stability index is 5.39 ± 0.22 (treatment: DMSO) and 5.48 ± 0.17 (treatment: MLN4924 1 uM, 8 h).

In the case of PGRSALIVAVLCYINLLNYMDRFT [SPNS1], the protein stability index runs as follows: (treatment: DMSO) 2.81 ± 0.88; (treatment: MLN4924 1 uM, 8 h) 3.44 ± 0.31.

For PHEDHVFLVANFSQIETLTSVFQK [MATN2], the protein stability index by setting is: (treatment: DMSO) 2.25 ± 0.24; (treatment: MLN4924 1 uM, 8 h) 2.35 ± 0.16.

As for PHGQYGGHHQGMPGYLPGAMPPYG [ZNF207], the protein stability index by setting is: (treatment: DMSO) 2.93 ± 0.33; (treatment: MLN4924 1 uM, 8 h) 3.09 ± 0.41.

For PKARKQGVSPADMYRWKLSSHEPC [ADAMTSL2], the protein stability index reads like this: (treatment: DMSO) 2.94 ± 0.27; (treatment: MLN4924 1 uM, 8 h) 3.25 ± 0.14.

For the sequence PKEEQQQALEQFAAAAAHSTPVRR [EPB41L3], the protein stability index runs as follows: (treatment: DMSO) 5.37 ± 0.087; (treatment: MLN4924 1 uM, 8 h) 5.22 ± 0.33.

For the sequence PKKKHLDYLIQATNETNVNIPQMA [SNAP91], the protein stability index was 3.67 ± 0.13 (treatment: DMSO) and 3.43 ± 0.33 (treatment: MLN4924 1 uM, 8 h).

As to PLMGETQERERVLTHFSRRYCQCN [PSD2], the protein stability index reads like this: (treatment: DMSO) 3.13 ± 0.38; (treatment: MLN4924 1 uM, 8 h) 3.62 ± 0.25.

For the sequence PLSLVKRTDLKDLIIFDKQSSQRM [CEP70], the protein stability index runs as follows: (treatment: DMSO) 2.97 ± 0.51; (treatment: MLN4924 1 uM, 8 h) 3.18 ± 0.44.
